Measured values reported in patent US6492116, “Assay for identifying inhibitors of the interaction between proteins p53 and dm2” (Cancer Research Campain Technology Ltd.).

Molecular target: p53D30 (human p53 residues 1-362) (Homo sapiens, UniProt P04637 SEQ:1-362)
Experiment: EMSA; 50 mM Tris-HCl, 50 mM NaCl, 5% glycerol, 0.1% Triton X-100, 10 mM DTT, 50 ug/ml poly(dI-dC), pH 7.6, 22 C; monoclonal antibodies included as mentioned; gel result not shown in the text
Details: chain copies: 4; label: 33P 5' end; HindIII-compatible 5' overhangs
Procedure: A 20 μl reaction volume containing 50 mM Tris. HCI, 50 mM NaCI, 5% (v/v) glycerol, 0.1% (v/v) Triton X-100, 10 mM DTT and 50 μg/ml polydeoxyinosinic-deoxycytidylic acid–pH=7.6 (binding buffer) are incubated for 30 min at 22° C. in the presence of the indicated amounts of p53D30, of radiolabelled oligonucleotides and of the mentioned monoclonal antibodies. Reactions are loaded onto a native 4% polyacrylamide gel containing 0.5×Tris.HCI–boric acid–pH=8.0 which had undergone pre-electrophoresis at 200 V for 45 min at 4 ° C. Electrophoresis is continued at 200 V from 90 to 120 min at 4° C. Gels are dried prior exposure to X-ray film (Amersham Hyperfilm-MP).

Chain of p53D30 (human p53 residues 1-362) (P04637 1-362): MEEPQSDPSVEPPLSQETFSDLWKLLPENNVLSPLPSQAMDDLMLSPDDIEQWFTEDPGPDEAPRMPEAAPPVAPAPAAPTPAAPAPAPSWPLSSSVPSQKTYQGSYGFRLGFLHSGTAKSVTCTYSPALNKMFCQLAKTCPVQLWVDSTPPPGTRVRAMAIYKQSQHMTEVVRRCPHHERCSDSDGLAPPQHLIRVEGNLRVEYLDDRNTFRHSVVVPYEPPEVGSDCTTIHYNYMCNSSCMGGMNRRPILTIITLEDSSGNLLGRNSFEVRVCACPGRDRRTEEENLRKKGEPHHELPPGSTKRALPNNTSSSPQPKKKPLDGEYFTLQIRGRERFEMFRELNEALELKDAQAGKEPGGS

B1: p53 consensus site oligonucleotide I/II (dsDNA)
DNA 1: AGCTTAGACATGCCTAGACATGCCTA
DNA 2: AGCTTAGGCATGTCTAGGCATGTCTA
binding result: binds
